The values that follow are results of earlier work, collected in paper PMC4699190.

Broadly, the Kd is the constant that tells how readily two partners part at equilibrium.

The data set concerns the target Carbonic anhydrase II (Homo sapiens) (UniProt P00918). Put plainly: solid-phase binding assay.
Turning to NDCBE C-terminus (from UniProt Q2Y0W8), the Kd is 330 nM. Regarding AE1 C-terminus (from UniProt P02730), the Kd is 597 nM.

Turning to NBCe1 C-terminus (from UniProt Q9Y6R1), the Kd is 322 nM.
